For orientation: stoichiometry N means the number of molecules, sites or subunits per partner or assembly.

The source of these data is PMC11549101, “Structural insights into human zinc transporter ZnT1 mediated Zn^2+ efflux” (EMBO Reports, 2024).

Data set [1] concerns the molecule itself. Description: cryo-EM structure; single-particle cryo-EM of purified hZnT3(50-388) in LMNG/CHS micelles, 50 mM MES pH 6.0, 150 mM NaCl, 1 mM ZnSO4; 3.14 Å map.
Data set [2] deals with the molecule itself. The data set is described as follows: cryo-EM structure; single-particle cryo-EM of purified hZnT1 in LMNG/CHS micelles, 50 mM HEPES-Na pH 7.5, 150 mM NaCl, no Zn2+ supplement, no EDTA treatment; 3.48 Å map, C1.

B1: human zinc transporter 3 (ZnT3) lacking the N-terminal 49 residues, ZnT3(50-388) (domain or fragment, UniProt Q99726 50-388, looked up)
chain: MPFHHCHRDPLPPPGLTPERLHARRQLYAACAVCFVFMAGEVVGGYLAHSLAIMTDAAHLLADVGSMMGSLFSLWLSTRPATRTMTFGWHRSETLGALASVVSLWMVTGILLYLAFVRLLHSDYHIEGGAMLLTASIAVCANLLMAFVLHQAGPPHSHGSRGAEYAPLEEGPEEPLPLGNTSVRAAFVHVLGDLLQSFGVLAASILIYFKPQYKAADPISTFLFSICALGSTAPTLRDVLRILMEGTPRNVGFEPVRDTLLSVPGVRATHELHLWALTLTYHVASAHLAIDSTADPEAVLAEASSRLYSRFGFSSCTLQVEQYQPEMAQCLRCQEPPQA
notes: Zinc transporter 3 (ZnT3/SLC30A3), human, residues 50-388 (lacking the N-terminal 49 residues); No protease step is described for ZnT3, so the tags were probably still on the chain; also called hZnT3; SLC30A3; source: HEK293F cells, transfected
Take B1: the “stoichiometry N” value in data set [1] came out at 2.

B2: human zinc transporter 1 (ZnT1), full-length wild type (natural protein, UniProt Q9Y6M5 1-507, looked up)
chain: MGCWGRNRGRLLCMLALTFMFMVLEVVVSRVTSSLAMLSDSFHMLSDVLALVVALVAERFARRTHATQKNTFGWIRAEVMGALVNAIFLTGLCFAILLEAIERFIEPHEMQQPLVVLGVGVAGLLVNVLGLCLFHHHSGFSQDSGHGHSHGGHGHGHGLPKGPRVKSTRPGSSDINVAPGEQGPDQEETNTLVANTSNSNGLKLDPADPENPRSGDTVEVQVNGNLVREPDHMELEEDRAGQLNMRGVFLHVLGDALGSVIVVVNALVFYFSWKGCSEGDFCVNPCFPDPCKAFVEIINSTHASVYEAGPCWVLYLDPTLCVVMVCILLYTTYPLLKESALILLQTVPKQIDIRNLIKELRNVEGVEEVHELHVWQLAGSRIIATAHIKCEDPTSYMEVAKTIKDVFHNHGIHATTIQPEFASVGSKSSVVPCELACRTQCALKQCCGTLPQAPSGKDAEKTPAVSISCLELSNNLEKKPRRTKAENIPAVVIEIKNMPNKQPESSL
notes: Zinc transporter 1 (ZnT1/SLC30A1), human, full-length wild type, codon-optimised synthetic cDNA; residues 138-240 and 448-507 not modelled in the map; also called hZnT1; SLC30A1; source: HEK293F cells, transfected; not shown: FLAG, C-terminal, cleaved; mCherry, C-terminal, cleaved
B2: the “stoichiometry N” value in data set [2] is 2.
